Laboratory results published in patent US20200102389A1.

Tests used:
[1] = target: modified human HLA-G β2M MHC class I complex (HLA-G specific amino acids replaced by HLA-A consensus amino acids) (human); assay: SPR (Biacore), reference antibody against degrafted HLA-G complex
[2] = target: recombinant soluble human HLA-G β2M MHC class I complex, monomer (human); assay: SPR (Biacore), reference antibody against monomeric wt HLA-G complex
[3] = target: human HLA-G expressed on cells (JEG3 naturally; SKOV3 HLA-G+ and PA-TU-8902 HLA-G+ transfectants) (human) (UniProt P17693); assay: flow cytometry, JEG3 cells pre-incubated with antibody, competitor ILT2-Fc chimera

| Kd [1] [µM] | koff [1] [s⁻¹] | kon [1] [M⁻¹ s⁻¹] | t½ [1] [min] | Kd [2] [µM] | koff [2] [s⁻¹] | kon [2] [M⁻¹ s⁻¹] | t½ [2] [min] | Inhibition of ILT2 binding to Jeg3 cells [3] [%] | Substance |
| --- | --- | --- | --- | --- | --- | --- | --- | --- | --- |
| 0.013 | 0.0012 | 89000 | 10 | 0.012 | 0.00085 | 74000 | 14 | – | MEM-G/11 (antibody) |
| 0.3 | 0.036 | 120000 | 0.3 | 0.0077 | 0.0011 | 150000 | 10 | -27.9 | MEM/G9 (antibody) |
